The supplement of paper PMC6757056
± gives the standard deviation of the averaged measurements.

B1: library; a variant is named by its letters at N, in order (parent)
chain: GCUGUCACCGGUGUAUUACCCUAGUGGUCGACCGGUCUGAUGAGUCUNNNNNNAGACGAAACAGC

Legend:
[1] = variants of: B1; assay: normalized RNA/DNA level with ligand (relative to sTRSVctl = 100) (log10 (% of sTRSVctl)); ligand: hypoxanthine (xanthine aptamer); higher = less ribozyme self-cleavage, higher mRNA level; settings: ligand concentration (+) RNA-Seq: 5 mM, HEK293T, reporter: mCherry (pCS4076), ligand present: yes
In short: (§1)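 Ribozyme switch library plasmids with mCherry reporters (eGFP in certain ligand experiments) went into HEK293T cells at 4 µg per 6-well well. Where ligand was used, it was applied 1 h before transfection, and total RNA was extracted with EDTA 72 h later for reverse transcription, amplification, barcoding and sequencing. RNA level is the RNA-to-DNA read ratio normalized to a spiked-in non-cleaving sequence or to the leading sequences, then scaled and log-transformed. Scaling was ×100 with log10, the leading set comprised 25 sequences, and the cutoff was ≥100 DNA reads.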

[2] = variants of: B1; assay: normalized RNA/DNA level without ligand (relative to sTRSVctl = 100) (log10 (% of sTRSVctl)); ligand: hypoxanthine (xanthine aptamer); higher = less ribozyme self-cleavage, higher mRNA level; settings: HEK293T, reporter: mCherry (pCS4076), ligand present: no
In short: as §1

UUCUUG
normalized RNA/DNA level with ligand (log10) [1]: 1.92 ± 0.068
normalized RNA/DNA level without ligand (log10) [2]: 1.794 ± 0.016

UUCUUA
normalized RNA/DNA level with ligand (log10) [1]: 1.95 ± 0.014
normalized RNA/DNA level without ligand (log10) [2]: 1.883 ± 0.018

UUCUUC
normalized RNA/DNA level with ligand (log10) [1]: 2.01 ± 0.062
normalized RNA/DNA level without ligand (log10) [2]: 2.06 ± 0.039

UUCUUU
normalized RNA/DNA level with ligand (log10) [1]: 1.927 ± 0.013
normalized RNA/DNA level without ligand (log10) [2]: 1.98 ± 0.034

GUGUCA
normalized RNA/DNA level with ligand (log10) [1]: 1.94 ± 0.052
normalized RNA/DNA level without ligand (log10) [2]: 1.77 ± 0.043

GUGUCC
normalized RNA/DNA level with ligand (log10) [1]: 1.97 ± 0.036
normalized RNA/DNA level without ligand (log10) [2]: 1.776 ± 0.0043

GUGUCU
normalized RNA/DNA level with ligand (log10) [1]: 1.95 ± 0.04
normalized RNA/DNA level without ligand (log10) [2]: 1.85 ± 0.019

UUGAGU
normalized RNA/DNA level with ligand (log10) [1]: 1.92 ± 0.026
normalized RNA/DNA level without ligand (log10) [2]: 1.75 ± 0.026

CUGAUG
normalized RNA/DNA level with ligand (log10) [1]: 1.936 ± 0.0068
normalized RNA/DNA level without ligand (log10) [2]: 1.646 ± 0.0062

CUGAUU
normalized RNA/DNA level with ligand (log10) [1]: 1.94 ± 0.096
normalized RNA/DNA level without ligand (log10) [2]: 1.87 ± 0.031

CUGAUC
normalized RNA/DNA level with ligand (log10) [1]: 1.98 ± 0.035
normalized RNA/DNA level without ligand (log10) [2]: 1.949 ± 0.019

UUGGGC
normalized RNA/DNA level with ligand (log10) [1]: 2.05 ± 0.032
normalized RNA/DNA level without ligand (log10) [2]: 1.914 ± 0.012

UUGGGG
normalized RNA/DNA level with ligand (log10) [1]: 1.91 ± 0.047
normalized RNA/DNA level without ligand (log10) [2]: 1.82 ± 0.042

UUGGGU
normalized RNA/DNA level with ligand (log10) [1]: 2.014 ± 0.011
normalized RNA/DNA level without ligand (log10) [2]: 1.82 ± 0.053

UUGGGA
normalized RNA/DNA level with ligand (log10) [1]: 2.02 ± 0.07
normalized RNA/DNA level without ligand (log10) [2]: 1.71 ± 0.053

GUGAGU
normalized RNA/DNA level with ligand (log10) [1]: 1.94 ± 0.028
normalized RNA/DNA level without ligand (log10) [2]: 1.639 ± 0.0057

GUCUUC
normalized RNA/DNA level with ligand (log10) [1]: 1.99 ± 0.042
normalized RNA/DNA level without ligand (log10) [2]: 1.9928 ± 0.0007

GUCUUG
normalized RNA/DNA level with ligand (log10) [1]: 1.9 ± 0.086
normalized RNA/DNA level without ligand (log10) [2]: 1.52 ± 0.066

GUCUUU
normalized RNA/DNA level with ligand (log10) [1]: 1.946 ± 0.003
normalized RNA/DNA level without ligand (log10) [2]: 1.885 ± 0.0085

GUCUUA
normalized RNA/DNA level with ligand (log10) [1]: 1.932 ± 0.0061
normalized RNA/DNA level without ligand (log10) [2]: 1.87 ± 0.021

AUGCAC
normalized RNA/DNA level with ligand (log10) [1]: 1.91 ± 0.12
normalized RNA/DNA level without ligand (log10) [2]: 1.74 ± 0.034

AUGCAU
normalized RNA/DNA level with ligand (log10) [1]: 1.87 ± 0.032
normalized RNA/DNA level without ligand (log10) [2]: 1.76 ± 0.019

CUUAGC
normalized RNA/DNA level with ligand (log10) [1]: 1.944 ± 0.011
normalized RNA/DNA level without ligand (log10) [2]: 1.87 ± 0.018

CUUAGU
normalized RNA/DNA level with ligand (log10) [1]: 1.936 ± 0.016
normalized RNA/DNA level without ligand (log10) [2]: 1.906 ± 0.0051

CUUAGA
normalized RNA/DNA level with ligand (log10) [1]: 1.984 ± 0.0081
normalized RNA/DNA level without ligand (log10) [2]: 1.852 ± 0.0069

CUUAGG
normalized RNA/DNA level with ligand (log10) [1]: 1.94 ± 0.075
normalized RNA/DNA level without ligand (log10) [2]: 1.84 ± 0.053

AUCUGU
normalized RNA/DNA level with ligand (log10) [1]: 1.91 ± 0.026
normalized RNA/DNA level without ligand (log10) [2]: 1.787 ± 0.014

AUCUGC
normalized RNA/DNA level with ligand (log10) [1]: 1.97 ± 0.04
normalized RNA/DNA level without ligand (log10) [2]: 1.88 ± 0.022

AUUAAC
normalized RNA/DNA level with ligand (log10) [1]: 1.881 ± 0.0094
normalized RNA/DNA level without ligand (log10) [2]: 1.8077 ± 0.0004

UUGACC
normalized RNA/DNA level with ligand (log10) [1]: 1.96 ± 0.049
normalized RNA/DNA level without ligand (log10) [2]: 1.987 ± 0.011

UUGACU
normalized RNA/DNA level with ligand (log10) [1]: 1.95 ± 0.077
normalized RNA/DNA level without ligand (log10) [2]: 1.9 ± 0.042

CUCUGA
normalized RNA/DNA level with ligand (log10) [1]: 1.96 ± 0.047
normalized RNA/DNA level without ligand (log10) [2]: 1.944 ± 0.009

CUCUGU
normalized RNA/DNA level with ligand (log10) [1]: 1.963 ± 0.0084
normalized RNA/DNA level without ligand (log10) [2]: 1.94 ± 0.028

CUCUGG
normalized RNA/DNA level with ligand (log10) [1]: 1.937 ± 0.0091
normalized RNA/DNA level without ligand (log10) [2]: 1.75 ± 0.084

AUGGGC
normalized RNA/DNA level with ligand (log10) [1]: 1.94 ± 0.064
normalized RNA/DNA level without ligand (log10) [2]: 1.81 ± 0.022

AUGGGU
normalized RNA/DNA level with ligand (log10) [1]: 1.88 ± 0.066
normalized RNA/DNA level without ligand (log10) [2]: 1.534 ± 0.0046

AUGGGG
normalized RNA/DNA level with ligand (log10) [1]: 1.88 ± 0.08
normalized RNA/DNA level without ligand (log10) [2]: 1.4 ± 0.081

AUGUUA
normalized RNA/DNA level with ligand (log10) [1]: 1.92 ± 0.026
normalized RNA/DNA level without ligand (log10) [2]: 1.761 ± 0.011

AUGUUC
normalized RNA/DNA level with ligand (log10) [1]: 1.94 ± 0.14
normalized RNA/DNA level without ligand (log10) [2]: 1.85 ± 0.034

AUGUGC
normalized RNA/DNA level with ligand (log10) [1]: 1.853 ± 0.018
normalized RNA/DNA level without ligand (log10) [2]: 1.667 ± 0.0026

AUGGAU
normalized RNA/DNA level with ligand (log10) [1]: 1.912 ± 0.0082
normalized RNA/DNA level without ligand (log10) [2]: 1.6566 ± 0.0015

UUCUGA
normalized RNA/DNA level with ligand (log10) [1]: 2.03 ± 0.036
normalized RNA/DNA level without ligand (log10) [2]: 1.834 ± 0.0034

UUCUGU
normalized RNA/DNA level with ligand (log10) [1]: 1.947 ± 0.0095
normalized RNA/DNA level without ligand (log10) [2]: 1.883 ± 0.018

UUCUGC
normalized RNA/DNA level with ligand (log10) [1]: 1.998 ± 0.019
normalized RNA/DNA level without ligand (log10) [2]: 1.92 ± 0.049

CUUAAA
normalized RNA/DNA level with ligand (log10) [1]: 1.899 ± 0.0031
normalized RNA/DNA level without ligand (log10) [2]: 1.8 ± 0.036

CUUAAU
normalized RNA/DNA level with ligand (log10) [1]: 1.9 ± 0.0027
normalized RNA/DNA level without ligand (log10) [2]: 1.76 ± 0.028

CUUAAG
normalized RNA/DNA level with ligand (log10) [1]: 1.93 ± 0.081
normalized RNA/DNA level without ligand (log10) [2]: 1.69 ± 0.018

AUUACU
normalized RNA/DNA level with ligand (log10) [1]: 1.956 ± 0.0042
normalized RNA/DNA level without ligand (log10) [2]: 1.819 ± 0.017

AUUACC
normalized RNA/DNA level with ligand (log10) [1]: 1.926 ± 0.013
normalized RNA/DNA level without ligand (log10) [2]: 1.94 ± 0.038

UUGUCA
normalized RNA/DNA level with ligand (log10) [1]: 1.99 ± 0.037
normalized RNA/DNA level without ligand (log10) [2]: 1.946 ± 0.01

UUGUCG
normalized RNA/DNA level with ligand (log10) [1]: 1.99 ± 0.025
normalized RNA/DNA level without ligand (log10) [2]: 1.947 ± 0.0075

UUGUCU
normalized RNA/DNA level with ligand (log10) [1]: 1.99 ± 0.03
normalized RNA/DNA level without ligand (log10) [2]: 2.02 ± 0.083

UUGUCC
normalized RNA/DNA level with ligand (log10) [1]: 1.99 ± 0.03
normalized RNA/DNA level without ligand (log10) [2]: 2.03 ± 0.067

UUGCAC
normalized RNA/DNA level with ligand (log10) [1]: 1.96 ± 0.051
normalized RNA/DNA level without ligand (log10) [2]: 1.9 ± 0.038

UUGCAG
normalized RNA/DNA level with ligand (log10) [1]: 1.915 ± 0.017
normalized RNA/DNA level without ligand (log10) [2]: 1.79 ± 0.099

UUGCAU
normalized RNA/DNA level with ligand (log10) [1]: 1.98 ± 0.024
normalized RNA/DNA level without ligand (log10) [2]: 1.862 ± 0.004

UUGCAA
normalized RNA/DNA level with ligand (log10) [1]: 1.92 ± 0.03
normalized RNA/DNA level without ligand (log10) [2]: 1.79 ± 0.048
